According to paper PMC5552852, “Structural basis for Ccd1 auto-inhibition in the Wnt pathway through homomerization of the DIX domain” (Scientific Reports, 2017):
Numbering of substitutions follows the chain as printed. Names may count otherwise. Values belong to the molecule of their own block, whether it stands above or below them.

Columns and labels:
[1] = biological target: mCcd1 DIX domain R400A (mouse)
[2] = biological target: mCcd1 DIX domain D399A (mouse)
[3] = biological target: mCcd1 DIX domain L402A (mouse)
[4] = biological target: the molecule itself; assay: SEC; gel filtration chromatography of the DIX domains without carrier (Figures 1b and 4e)
[5] = biological target: T1, MBP-fused zCcd1 DIX (zebrafish, UniProt Q804T6 356-438); assay: pull-down; MBP-fused mCcd1, zCcd1 or Dvl1 DIX (0.8 mM) held on amylose resin, Axin DIX or Dvl1 DIX free; pull-down buffer, 277 K (Figures 5f, 5g); details: both partners purified
T1 construct: DIX domain of zebrafish Ccd1, cDNA Gene ID 360137; The uncleaved precursor of m2; also called MBP-fused zCcd1 DIX domain; source: E. coli (plasmid pOPINM), purified (amylose resin)
T1 sequence (looked up): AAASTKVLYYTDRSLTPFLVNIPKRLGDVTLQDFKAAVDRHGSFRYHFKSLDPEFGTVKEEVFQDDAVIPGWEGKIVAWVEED

[6] = biological target: T2, mCcd1 DIX domain L402A; assay: dynamic light scattering; details: chain shown with the change;; parent: est. 4.4; read off a plot
T2 chain: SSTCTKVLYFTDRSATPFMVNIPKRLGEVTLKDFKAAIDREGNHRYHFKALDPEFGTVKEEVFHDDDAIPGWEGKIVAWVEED

[7] = biological target: T3, mCcd1 DIX domain W466A; assay: dynamic light scattering; details: chain shown with the change;; parent: est. 4.4; read off a plot
T3 chain: T2 chain with A15L, W79A

[8] = biological target: T4, mCcd1 DIX domain F397A; assay: dynamic light scattering; details: chain shown with the change;; parent: est. 4.4; read off a plot
T4 chain: T2 chain with F10A, A15L

TCF-dependent transcription (TOPflash luciferase reporter, HeLa cells transfected with FLAG-tagged mCcd1 BalphaL R400A), compared to the wild type [1]: 1.4 fold
Molecule: mCcd1 DIX domain R400A (domain or fragment)

other: DLS peak size (diameter) of homopolymer [6]: 7.3 nm
B3: mouse Coiled-coil-DIX1 (mCcd1) DIX domain L402A (protein)
chain: T2 chain

other: DLS peak size (diameter) of homopolymer [7]: 8.2 nm
B4: mouse Coiled-coil-DIX1 (mCcd1) DIX domain W466A (protein)
chain: T2 chain with A15L, W79A

other: DLS peak size (diameter) of homopolymer [8]: 5.5 nm
B5: mouse Coiled-coil-DIX1 (mCcd1) DIX domain F397A (protein)
chain: T2 chain with F10A, A15L

Further lines, the molecule ahead of its results:

Molecule: mCcd1 DIX domain D399A (domain or fragment)
TCF-dependent transcription (TOPflash luciferase reporter, HeLa cells transfected with FLAG-tagged mCcd1 BalphaL D399A), compared to the wild type [2]: 1.3 fold

Molecule: mCcd1 DIX domain L402A (domain or fragment)
TCF-dependent transcription (TOPflash luciferase reporter, HeLa cells transfected with FLAG-tagged mCcd1 BalphaL L402A), compared to the wild type [3]: 1.5 fold

B1: zebrafish Coiled-coil-DIX1 (zCcd1) DIX domain (domain or fragment, UniProt Q804T6 356-438, looked up)
chain: T1 sequence (looked up)
notes: DIX domain of zebrafish Coiled-coil-DIX1 (zCcd1), residues 356-438, cDNA Gene ID 360137; also called zCcd DIX domain; Zebrafish CCD1; source: E. coli (plasmid pOPINM), purified (amylose resin, HRV3C cleavage, HiTrap Q)
stoichiometry N [4]: 2

B2: Axin DIX domain (domain or fragment, UniProt O70239 745-827, looked up)
chain: CDSIVVAYYFCGEPIPYRTLVRGRAVTLGQFKELLTKKGSYRYYFKKVSDEFDCGVVFEEVREDEAILPVFEEKIIGKVEKVD
notes: DIX domain of Axin; source: E. coli, expressed as a fusion construct with GST or MBP, purified
fold binding relative to MBP-fused mCcd1 DIX [5]: 1.53 fold
